The values that follow come from patent publication US5844099, “Cytokine antagonists” (Regeneron Pharmaceuticals, Inc., dated 1998).

Assay [1] addresses CNTFRα, gp130 and LIFRβ on EW-1 cells. Briefly: two site fit of CNTF binding on EW-1 cells; high affinity site.
The next assay concerns the target CNTFRα on EW-1 cells. Nature of the assay: two site fit of CNTF binding on EW-1 cells; low affinity site.
Assay [2] deals with T1, recombinant human IL-6 (human, UniProt P05231).
In the next assay the target is human 125I-IL-6 (human) (UniProt P05231). Briefly: dissociation of 20 pM 125I-IL-6 from 500 pM mAb B-E8 after adding 20 nM cold IL-6; precipitation with Protein G-Sepharose.
Assay [3] deals with T1, recombinant human IL-6. Briefly: cell-based or functional assay.
The target in assay [4] is T2, CNTFRα:β1 (CNTFRα and gp130) on PC12D cells.
T2 sequence (Q08406 whole entry, looked up): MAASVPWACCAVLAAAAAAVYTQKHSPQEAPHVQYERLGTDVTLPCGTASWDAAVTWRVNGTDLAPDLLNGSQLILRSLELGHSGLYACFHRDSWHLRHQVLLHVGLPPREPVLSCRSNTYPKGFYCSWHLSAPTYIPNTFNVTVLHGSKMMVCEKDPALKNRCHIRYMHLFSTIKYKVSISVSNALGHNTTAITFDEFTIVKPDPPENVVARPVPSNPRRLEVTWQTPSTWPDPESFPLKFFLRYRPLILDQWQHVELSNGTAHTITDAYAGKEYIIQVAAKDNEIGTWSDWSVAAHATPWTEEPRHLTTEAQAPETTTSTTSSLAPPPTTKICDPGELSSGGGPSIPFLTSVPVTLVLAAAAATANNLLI
T2 sequence (P40190 whole entry, looked up): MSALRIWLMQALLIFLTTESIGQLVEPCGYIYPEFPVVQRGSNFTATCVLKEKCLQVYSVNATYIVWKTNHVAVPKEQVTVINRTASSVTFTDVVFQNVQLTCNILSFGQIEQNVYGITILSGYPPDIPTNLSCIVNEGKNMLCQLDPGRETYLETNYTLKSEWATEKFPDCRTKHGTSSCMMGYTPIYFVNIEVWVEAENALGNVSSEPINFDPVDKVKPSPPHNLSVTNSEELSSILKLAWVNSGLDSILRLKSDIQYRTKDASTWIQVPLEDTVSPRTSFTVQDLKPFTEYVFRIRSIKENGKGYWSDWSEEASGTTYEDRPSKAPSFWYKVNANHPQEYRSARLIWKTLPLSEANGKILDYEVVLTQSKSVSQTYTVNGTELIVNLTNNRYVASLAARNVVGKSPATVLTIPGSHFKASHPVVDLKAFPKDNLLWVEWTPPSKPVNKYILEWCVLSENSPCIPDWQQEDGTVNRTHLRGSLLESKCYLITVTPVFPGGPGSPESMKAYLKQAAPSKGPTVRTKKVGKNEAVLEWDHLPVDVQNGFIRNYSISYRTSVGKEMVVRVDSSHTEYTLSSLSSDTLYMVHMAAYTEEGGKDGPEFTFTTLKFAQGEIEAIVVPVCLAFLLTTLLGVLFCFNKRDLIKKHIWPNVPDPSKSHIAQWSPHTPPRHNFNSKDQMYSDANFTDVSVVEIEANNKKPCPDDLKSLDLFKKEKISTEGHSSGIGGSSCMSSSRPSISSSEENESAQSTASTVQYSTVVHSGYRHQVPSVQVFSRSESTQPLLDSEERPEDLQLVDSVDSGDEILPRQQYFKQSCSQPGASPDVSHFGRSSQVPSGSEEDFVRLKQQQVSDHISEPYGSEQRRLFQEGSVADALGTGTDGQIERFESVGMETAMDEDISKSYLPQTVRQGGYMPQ
Nature of the assay: Scatchard analysis of 125I-CNTF saturation binding on PC12D cells; high affinity site.

The next assay has as its target T3, CNTFRα on PC12D cells.
T3 sequence (Q08406 23-342, looked up): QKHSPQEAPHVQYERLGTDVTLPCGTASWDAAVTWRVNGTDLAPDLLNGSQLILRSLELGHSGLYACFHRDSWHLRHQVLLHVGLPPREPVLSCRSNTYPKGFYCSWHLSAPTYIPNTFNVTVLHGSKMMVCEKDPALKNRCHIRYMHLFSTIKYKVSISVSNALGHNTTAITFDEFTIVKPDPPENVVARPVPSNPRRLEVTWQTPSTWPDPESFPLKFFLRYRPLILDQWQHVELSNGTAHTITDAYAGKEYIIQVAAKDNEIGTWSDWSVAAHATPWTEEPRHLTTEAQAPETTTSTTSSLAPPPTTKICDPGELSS
Briefly: Scatchard analysis of 125I-CNTF saturation binding on PC12D cells; low affinity site.

Consider CNTF (ligand), for which the Kd (usually the constant that tells how readily two partners part at equilibrium) in assay [1] worked out at 10 pM; with CNTFRα on EW-1 cells, 1000 pM.

Consider “anti-IL-6 monoclonal neutralizing antibody B-E8”, for which the IL-6-dependent proliferation of XG-1 cells (MTT assay) (fold molar excess over IL-6) in the assay with recombinant human IL-6 [2] was determined as 10. Further, the percent of the counts remaining associated after three days with human 125I-IL-6 (human) is below 5%.

B1: gp130-Fc homodimer (Fc fusion)
chain (part 1 of 2): ELLDPCGYISPESPVVQLHSNFTAVCVLKEKCMDYFHVNANYIVWKTNHFTIPKEQYTIINRTASSVTFTDIASLNIQLTCNILTFGQLEQNVYGITIISGLPPEKPKNLSCIVNEGKKMRCEWDGGRETHLETNFTLKSEWATHKFADCKAKRDTPTSCTVDYSTVYFVNIEVWVEAENALGKVTSDHINFDPVYKVKPNPPHNLSVINSEELSSILKLTWTNPSIKSVIILKYNIQYRTKDASTWSQIPPEDTASTRSSFTVQDLKPFTEYVFRIRCMKEDGKGYWSDWSEEASGITYEDRPSKAPSFWYKIDPSHTQGYRTVQLVWKTLPPFEANGKILDYEVTLTRWKSHLQNYTVNATKLTVNLTNDRYLATLTVRNLVGKSDAAVLTIPACDFQATHPVMDLKAFPKDNMLWVEWTTPRESVKKYILEWCVLSDKAPCITDWQQEDGTVHRTYLRGNLAESKCYLITVTPVYADGPGSPESIKAYLKQAPPSKGPTVRTKKVGKNEAVLEWDQLPVDVQNGFIRNYTIFYRTIIGNETAVNVDSSHTEYTLSSLTSDTLYMVRMAAYTDEGGKDGPEFTFTTPKFAQGEIESG
chain (part 2 of 2): HHHHHH
Take B1: the “IL-6-dependent proliferation of XG-1 cells” value in the assay with recombinant human IL-6 [3] was 1000 fold molar excess over IL-6.

B2: 125I-CNTF (ligand, UniProt P20294 1-200, looked up, species assumed)
Ciliary neurotrophic factor: MAFAEQTPLTLHRRDLCSRSIWLARKIRSDLTALMESYVKHQGLNKNINLDSVDGVPVASTDRWSEMTEAERLQENLQAYRTFQGMLTKLLEDQRVHFTPTEGDFHQAIHTLMLQVSAFAYQLEELMVLLEQKIPENEADGMPATVGDGGLFEKKLWGLKVLQELSQWTVRSIHDLRVISSHQMGISALESHYGAKDKQM
modifications: 125I label
Turning to B2, the Kd in assay [4] was 9 pM; with CNTFRα on PC12D cells, 3400 pM.
